Ends that are not written are not given here. * marks the point of attachment. FITC = O=C1OC2(c3ccc(O)cc3Oc3cc(O)ccc32)c2ccc(NC(=S)*)cc21

For orientation: Kd means the concentration at which binding is half-saturated.

Test [1] concerns the target T1, GST-tagged CgGal11Ap KIX domain (amino acids 1-86) (C. glabrata, UniProt P08515 1-218 = GST). Put plainly: fluorescence anisotropy/polarization, FITC peptide with increasing GST-CgGal11Ap KIX. Background: Polarisation of emitted light reports the rotation of a fluorescent probe.
Test [2] addresses GST (glutathione S-transferase) (UniProt P08515 1-218 = GST). Put plainly: fluorescence polarization.
Test [3] deals with T1, GST-tagged CgGal11Ap KIX domain (amino …). Put plainly: fluorescence polarization, salt and pH adjusted.
Test [4] shares this target. Put plainly: fluorescence polarization, FITC peptide with increasing GST-CgGal11Ap KIX.

T1 sequence (P08515 whole entry, the tested form may be a part): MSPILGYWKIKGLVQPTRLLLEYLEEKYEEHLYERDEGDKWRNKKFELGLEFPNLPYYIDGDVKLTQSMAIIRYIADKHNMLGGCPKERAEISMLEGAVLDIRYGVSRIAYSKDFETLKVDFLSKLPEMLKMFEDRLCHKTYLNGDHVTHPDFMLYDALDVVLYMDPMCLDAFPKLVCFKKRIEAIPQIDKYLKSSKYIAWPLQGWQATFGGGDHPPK
GST (glutathione S-transferase), sequence (P08515 whole entry, the tested form may be a part): as above

B1: Fluorescein-conjugated 15-amino acid CgPdr1pAD peptide (FITC-LYNSLWGDLFSDVYL) (peptide)
peptide: {FITC}-LYNSLWGDLFSDVYL
notes: also called short Fluorescein-tagged CgPdr1pAD peptide
In the case of B1, the dissociation constant Kd in test [1] is roughly 210000 nM.

B2: FITC-CgPdr1pAD-30 (FITC-LGTLDEFVNKGDLNELYNSLWGDLFSDVYL) (peptide)
peptide: {FITC}-LGTLDEFVNKGDLNELYNSLWGDLFSDVYL
notes: also called FITC-labled-CgPdr1pAD-30; Fluorescein-tagged CgPdr1pAD-30 peptide
In the case of B2, the binding result in test [2] is listed as “no binding”. Besides, the dissociation constant Kd in test [3] was roughly 700 nM; in test [4], roughly 780 nM; in test [1], roughly 2000 nM.

Source of the values: patent US20100273676A1 (GENERAL HOSPITAL, published 2010).
